Measured values as given in PMC12748787.

Biological target: Trx-CaV1.2 JBM (mouse) (UniProt Q01815)
Assay: ITC

Sequence of Trx-CaV1.2 JBM (mouse) (Q01815 1647-1777): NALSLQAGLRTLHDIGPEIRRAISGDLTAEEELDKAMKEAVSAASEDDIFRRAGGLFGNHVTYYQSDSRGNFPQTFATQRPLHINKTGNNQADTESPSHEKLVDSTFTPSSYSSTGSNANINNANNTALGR

Substance | fold reduction in binding affinity against the wild type [fold] | also measured
JR-JBM chimera R160E/F165S (from UniProt Q9ET78 1-155; Q9ET78 168-440) (domain or fragment) | – | Kd: 42 µM
MBP-JPH2 NT S165F (mouse) (from UniProt Q9ET78 1-440) (domain or fragment) | – | fold decrease in binding affinity against the wild type: > 5 fold
JPH2 NT E85K (from UniProt Q9ET78 1-440) (domain or fragment) | 3 | –
JPH2 NT A399S (A405S in mouse JPH2) (from UniProt Q9ET78 1-440) (domain or fragment) | 3 | –
